Test results: patent US20210301018A1 (ITABMED HK, published 2021)

T1: human CD19 on cells (human B lymphocytes; Raji, Daudi and Reh tumor cells) (human, UniProt P15391 20-556)
T1 sequence (looked up): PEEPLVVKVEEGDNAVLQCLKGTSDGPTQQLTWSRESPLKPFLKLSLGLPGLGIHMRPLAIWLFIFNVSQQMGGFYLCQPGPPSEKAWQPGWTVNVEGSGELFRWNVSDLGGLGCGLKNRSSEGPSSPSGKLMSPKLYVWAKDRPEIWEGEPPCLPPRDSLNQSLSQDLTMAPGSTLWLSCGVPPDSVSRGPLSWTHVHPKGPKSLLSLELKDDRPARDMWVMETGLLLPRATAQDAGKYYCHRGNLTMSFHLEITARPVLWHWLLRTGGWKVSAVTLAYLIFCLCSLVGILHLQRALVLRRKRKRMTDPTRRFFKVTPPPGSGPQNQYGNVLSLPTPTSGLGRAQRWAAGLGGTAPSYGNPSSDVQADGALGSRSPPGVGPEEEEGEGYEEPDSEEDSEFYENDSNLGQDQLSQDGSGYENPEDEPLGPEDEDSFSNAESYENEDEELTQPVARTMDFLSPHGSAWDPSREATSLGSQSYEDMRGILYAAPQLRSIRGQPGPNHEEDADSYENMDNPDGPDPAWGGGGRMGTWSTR

T2: cynomolgus monkey CD19 on cynomolgus monkey B lymphocytes (cynoPBMC) (cynomolgus monkey, UniProt A0A2K5W8L9 20-557)
T2 sequence: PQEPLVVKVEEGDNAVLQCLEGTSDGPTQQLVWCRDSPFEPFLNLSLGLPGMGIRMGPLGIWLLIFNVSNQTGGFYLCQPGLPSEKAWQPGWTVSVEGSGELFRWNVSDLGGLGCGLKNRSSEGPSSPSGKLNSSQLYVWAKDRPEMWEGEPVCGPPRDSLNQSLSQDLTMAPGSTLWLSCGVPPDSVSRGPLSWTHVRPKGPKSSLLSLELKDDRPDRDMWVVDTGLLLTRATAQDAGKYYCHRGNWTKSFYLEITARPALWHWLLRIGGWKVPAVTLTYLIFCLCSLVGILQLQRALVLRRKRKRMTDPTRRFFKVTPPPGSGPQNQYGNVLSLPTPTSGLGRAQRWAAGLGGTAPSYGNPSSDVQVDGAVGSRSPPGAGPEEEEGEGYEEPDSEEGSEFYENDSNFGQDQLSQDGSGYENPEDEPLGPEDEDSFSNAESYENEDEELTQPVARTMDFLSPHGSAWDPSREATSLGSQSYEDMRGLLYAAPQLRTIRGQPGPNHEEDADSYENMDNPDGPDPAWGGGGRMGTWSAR


Tests used:
Assay in all cases: cell-based or functional assay
[1] = molecular target: T1, human CD19 on cells (human B …)
[2] = molecular target: T2, cynomolgus monkey CD19 on cynomolgus …
[3] = molecular target: T1, human CD19 on cells (human B …); remark: listed apart in the source
[4] = molecular target: T2, cynomolgus monkey CD19 on cynomolgus …; remark: listed apart in the source

| Binder | cell killing activity relative to ITAB2003 (human PBMC against autologous B cells) [1] [fold] | cell killing activity relative to ITAB2003 (cynomolgus monkey PBMC against autologous B cells) [2] [fold] | EC50 of CD19×CD3 BSAP mediated PBMC cytotoxicity against autologous B cells (human PBMC) [3] [ng/mL] | EC50 of CD19×CD3 BSAP mediated PBMC cytotoxicity against autologous B cells (cynomolgus monkey PBMC) [4] [ng/mL] | EC50 of CD19×CD3 BSAP mediated human PBMC cytotoxicity against Raji tumor cells [1] [ng/mL] |
| --- | --- | --- | --- | --- | --- |
| CD19×CD3 bispecific antigen binding protein ITAB2006 (bispecific antibody) EVQLVESGGGLVQPGGSLRLSCAASGFTFNTYAMNWVRQAPGKGLEWVARIRSKYNNYATYYADSVKDRFTISRDDSKNTLYLQMNSLRAEDTAVYYCVRHGNFGNSYVSWFAYWGQGTMVTVSSGGGGSGGGGSGGGGSQAVVTQEPSLTVSPGGTVTLTCRSSTGAVTTSNYANWVQQKPGQAPRGLIGGTNKRAPGTPARFSGSLLGGKAALTLSGVQPEDEAEYYCALWYSNLWVFGGGTKLTVLGRAGGGGAGGGGQVQLVQSGPELIKPGGSVKMSCKASGYTFTSYVMHWVRQKPGQGLEWIGYINPYNDGTKYNEKFKGRATLTSDKSSSTAYMELSSLRSEDSAVYYCARGTYYYGSRVFDYWGQGTTVTVSSASTKGPSVFPLAPSSKSTSGGTAALGCLVKDYFPEPVTVSWNSGALTSGVHTFPAVLQSSGLYSLSSVVTVPSSSLGTQTYICNVNHKPSNTKVDKRVEPKSCPPCGGGGSHHHHHH light: DVVMTQSPSSIPVTLGESVSISCRSSKSLQNVNGNTYLYWFQQRPGQSPQLLIYRMSNLNSGVPDRFSGSGSGTDFTLRISGVEPEDVGVYYCMQHLEYPITFGAGTKLEIKRTVAAPSVFIFPPSDEQLKSGTASVVCLLNNFYPREAKVQWKVDNALQSGNSQESVTEQDSKDSTYSLSSTLTLSKADYEKHKVYACEVTHQGLSSPVTKSFNRGECPPCS | ≥ 7 | ≥ 62 | 0.2 | 18.5 | – |
| CD19×CD3 bispecific antigen binding protein ITAB2003 (bispecific antibody) EVQLVESGGGLVQPGGSLRLSCAASGFTFNTYAMNWVRQAPGKGLEWVARIRSKYNNYATYYADSVKDRFTISRDDSKNTLYLQMNSLRAEDTAVYYCVRHGNFGNSYVSWFAYWGQGTMVTVSSGGGGSGGGGSGGGGSQAVVTQEPSLTVSPGGTVTLTCRSSTGAVTTSNYANWVQQKPGQAPRGLIGGTNKRAPGTPARFSGSLLGGKAALTLSGVQPEDEAEYYCALWYSNLWVFGGGTKLTVLGRAGGGQVQLVQSGPELIKPGGSVKMSCKASGYTFTSYVMHWVRQKPGQGLEWIGYINPYNDGTKYNEKFKGRATLTSDKSSSTAYMELSSLRSEDSAVYYCARGTYYYGSRVFDYWGQGTTVTVSSASTKGPSVFPLAPSSKSTSGGTAALGCLVKDYFPEPVTVSWNSGALTSGVHTFPAVLQSSGLYSLSSVVTVPSSSLGTQTYICNVNHKPSNTKVDKKVEPKSCPPCGGGGSHHHHHH light: DVVMTQSPSSIPVTLGESVSISCRSSKSLLNSNGNTYLYWFQQRPGQSPQLLIYRMSNLASGVPDRFSGSGSGTDFTLRISGVEPEDVGVYYCMQHLEYPLTFGAGTKLEIKRTVAAPSVFIFPPSDEQLKSGTASVVCLLNNFYPREAKVQWKVDNALQSGNSQESVTEQDSKDSTYSLSSTLTLSKADYEKHKVYACEVTHQGLSSPVTKSFNRGECPPC | – | – | 2.1 | > 2090 | 0.49 |
| CD19×CD3 bispecific antigen binding protein ITAB2005 (bispecific antibody) EVQLVESGGGLVQPGGSLRLSCAASGFTFNTYAMNWVRQAPGKGLEWVARIRSKYNNYATYYADSVKDRFTISRDDSKNTLYLQMNSLRAEDTAVYYCVRHGNFGNSYVSWFAYWGQGTMVTVSSGGGGSGGGGSGGGGSQAVVTQEPSLTVSPGGTVTLTCRSSTGAVTTSNYANWVQQKPGQAPRGLIGGTNKRAPGTPARFSGSLLGGKAALTLSGVQPEDEAEYYCALWYSNLWVFGGGTKLTVLGRAGGGQVQLVQSGPELIKPGGSVKMSCKASGYTFTSYVMHWVRQKPGQGLEWIGYINPYNDGTKYNEKFKGRATLTSDKSSSTAYMELSSLRSEDSAVYYCARGTYYYGSRVFDYWGQGTTVTVSSASTKGPSVFPLAPSSKSTSGGTAALGCLVKDYFPEPVTVSWNSGALTSGVHTFPAVLQSSGLYSLSSVVTVPSSSLGTQTYICNVNHKPSNTKVDKKVEPKSCPPCGGGGSHHHHHH light: DVVMTQSPSSIPVTLGESVSISCRSSKSLQNVNGNTYLYWFQQRPGQSPQLLIYRMSNLNSGVPDRFSGSGSGTDFTLRISGVEPEDVGVYYCMQHLEYPITFGAGTKLEIKRTVAAPSVFIFPPSDEQLKSGTASVVCLLNNFYPREAKVQWKVDNALQSGNSQESVTEQDSKDSTYSLSSTLTLSKADYEKHKVYACEVTHQGLSSPVTKSFNRGECPPCS | ≥ 7 | ≥ 62 | 0.3 | 33.5 | – |
